Target: T1, TFAM K4Q4 (acetyl-lysine mimic) (Homo sapiens, UniProt Q00059 43-246, K62Q;K76Q;K111Q;K118Q)
T1 sequence: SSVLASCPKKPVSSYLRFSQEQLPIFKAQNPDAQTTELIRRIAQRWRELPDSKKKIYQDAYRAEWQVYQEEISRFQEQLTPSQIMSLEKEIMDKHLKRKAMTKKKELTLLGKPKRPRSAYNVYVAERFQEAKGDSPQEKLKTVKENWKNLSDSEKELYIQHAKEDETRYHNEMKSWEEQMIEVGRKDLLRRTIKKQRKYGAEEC
Experiment: MST

B1: non-specific 18 bp duplex with 13 nt overhang (mixed)
DNA 1: GTCACTGTTCGAGCACCA
DNA 2: CCATAGATAGCATTGGTGCTCGAACAGTGAC
Kd: 131 ± 17 nM
